From patent US20130266574A1 (Regeneron, published 2013)
Substitutions are numbered along the chain they refer to. Names and notes keep the numbering of the source.

T1: amino acid residues 26-148 of human ANGPTL4 fused in-line to mouse IgG2a (hANGPTL4-mFc) (human)
T1 chain: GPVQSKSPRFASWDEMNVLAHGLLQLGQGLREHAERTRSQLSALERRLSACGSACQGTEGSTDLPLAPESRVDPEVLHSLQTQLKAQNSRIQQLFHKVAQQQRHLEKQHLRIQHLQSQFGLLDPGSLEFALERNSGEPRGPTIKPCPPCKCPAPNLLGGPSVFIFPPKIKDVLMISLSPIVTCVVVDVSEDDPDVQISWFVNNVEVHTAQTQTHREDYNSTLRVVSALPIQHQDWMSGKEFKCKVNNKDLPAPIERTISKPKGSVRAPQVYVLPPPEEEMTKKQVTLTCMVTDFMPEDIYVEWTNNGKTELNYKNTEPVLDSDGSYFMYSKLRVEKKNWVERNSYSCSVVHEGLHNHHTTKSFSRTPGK

T2: full-length hANGPTL4 (amino acid residues 26-406 of SEQ ID NO:476) with a C-terminal hexa-histidine tag (human, UniProt Q9BY76 26-406)
T2 sequence: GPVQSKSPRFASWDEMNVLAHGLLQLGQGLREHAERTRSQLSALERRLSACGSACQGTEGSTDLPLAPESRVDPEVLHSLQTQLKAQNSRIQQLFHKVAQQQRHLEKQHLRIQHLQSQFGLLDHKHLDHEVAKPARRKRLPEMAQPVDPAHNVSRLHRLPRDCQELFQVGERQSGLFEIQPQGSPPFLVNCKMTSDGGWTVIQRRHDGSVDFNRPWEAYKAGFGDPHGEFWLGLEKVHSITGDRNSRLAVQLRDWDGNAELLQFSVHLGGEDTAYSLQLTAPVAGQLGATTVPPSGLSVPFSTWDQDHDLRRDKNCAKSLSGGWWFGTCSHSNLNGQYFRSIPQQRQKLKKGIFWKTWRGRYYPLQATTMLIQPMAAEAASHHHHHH

B1: H4H284P (antibody, human IgG4 S228P, V domains shown)
VH: QVQLVESGGGVVQPGRSLRLSCAASGFTFSSYGMHWVRQAPGKGLEWMAVISFDGGNKNNADSVKGRFTISRDNSKNTLYLQMNSLRAEDTAVYYCAKEGDRSGHPYFYYYGLDVWGQGTTVTVSA
VL: DIQLTQSPSFLSASVGDRVTITCWASQGISSYLAWYQQKPGKAPKLLIYAASTLQSGVPSRFSGSGSETEFTLTISSLQPEDFATYYCQQLHSYPLTFGGGTKVEIK
notes: IgG4 version of H1H284P (constant region replaced)
B2: H4H268P2 (antibody, human IgG4 S228P, V domains shown)
VH: QVQLQQSGAGLLKPSETLSLTCTVYGGSFSIHHWTWIRHPPGKGLEWIGEINHRGSTNYNPSLKSRVTISIDTSKNQFSLKLSAVTAADTAVYYCARGLRFLDWLSSYFDYWGQGTLVTVSS
VL: DIQMTQSPSSLSASVGDRVTITCRASQGISDYLAWYQQKPGKVPNLLIYAASALQSGVPSRFSGSGSGTDFTLTISSLQPEDVATYYCQNYNTAPLTFGGGTKVEIK
notes: IgG4 version of H1H268P
B3: H1H292P (antibody, V domains shown)
VH: EVQLVESGGGLVQPGGSLRLSCVASGFTFSSYDMHWVRQLPGKGLEWVSAIGVAGDTYYPASVKGRFTISRENAKNSLYLQMNSLRAGDTAVYYCARGDSGNYYDGDYFDFWGQGTLVTVSS
VL: DIQMTQSPSTLSASVGDRVTITCRASQSINRWLAWYQQKPGKAPKVLIYKASNLESGVPSRFSGSGSGTEFTLTISSLQPDDFATYYCQQYDSYFRTFGQGTKVEIK
notes: Fully human antibody, H1H prefix (human IgG1)
B4: H1H291P (antibody, V domains shown)
VH: EVQLVESGGGLVQPGGSLRLSCAASGFTFSTYDMHWVRQGLGKGLEWVSAIGSAGDTYYPGSVKGRFTISRDNAKSSLFLHMNSLRAGDTALYYCARGDSRNYFVGDYFDYWGQGTLVTVSS
VL: B3 VL with V15I, N30S, R31S, N53S, S56A, T85S, D92S, F95S
notes: as for B3
B5: H1H285P (antibody, V domains shown)
VH: EVQLVESGGGLVQPGGSLRLSCAASGFTFSRYDMHWVRQVTGKGLEWVSGIGTAGDTYYPGSVKGRFTISRENDKNSLYLQMNSLRVGDTAVYYCARGDSKNYYVGDYFDYWGQGTLVTVSS
VL: B3 VL with I21F, Q27H, N30G, R31N, K50E, N53S, S56D, S93T
notes: as for B3
B6: H1H283P (antibody, V domains shown)
VH: B5 VH with R31S, T41A, G50A, G61V, D74A, Q81H, V87A, Y94F, K101R
VL: B3 VL with N30S, D92N, F95S
notes: as for B3
B7: H1H644P (antibody, V domains shown)
VH: B5 VH with R31S, T41A, G50A, G61V, D74A, Q81H, V87A, K101R
VL: B3 VL with N30S, D92N, S93T, F95S
notes: as for B3
B8: H1H295P (antibody, V domains shown)
VH: B4 VH with G40A, L41P, H81Q
VL: B3 VL with N30G, R31T, V46I, N53S, S56G, T85N, D92N, Y94F, F95Y
notes: as for B3
B9: H1H638P (antibody, V domains shown)
VH: B3 VH with L40V, P41A, S49A, V53T, A61V, Y79S, Q81H, G101R, D105V, F111Y
VL: B3 VL with N30S, N53S, E55K, P80S, D92N, F95S
notes: as for B3
B10: H1H257P (antibody, V domains shown)
VH: B5 VH with R31S, T41A, G50A, G61V, D74A, Q81H, V87A, Y94F, K101R
VL: B3 VL with N30S, K50Q, F95S, T97A, Q100R
notes: Fully human antibody; the H1H prefix stands for human IgG1 (said outright only for H1H268P and H1H284P)
B11: H1H653P (antibody, V domains shown)
VH: QVQLVESGGGVVQPGRSLRLSCVASGFTFSSYGMHWVRQAPGKGLEWMAVIWYDGSNKYFADSVKDRFTISRDNSKNTLYLQMNTLRPDDTAVYYCVKADAPLLIYGVDVWGQGTTVTVS
VL: DIQMTQSPSSLSASVGDRVTITCRASQGIRNDLGWYQEKPGKAPKRLIYFASSLQSGVPSRFSGSGSGTEFTLTISSLQPEDFATYYCLQHNSYPYTFGQGTKLEIK
notes: as for B3
B12: H1H624P (antibody, V domains shown)
VH: EVQLVESGGGLVQPGGSLRLSCAASEFIFSSYAMNWVRQAPGKGLEWVSVISGSGDSKYYADSVKGRFTISRDNSKNTLYLQMNSLRVEDTAVYYCAKDGKDRYGFYYNFYGMDVWGQGTTVTVS
VL: B1 VL with L4M, L46I, G64A, E68G, Y87H, H92N, L96F, G100P, E105D
notes: as for B3
B13: H1H236N2 (antibody, V domains shown)
VH: EVQLVESGGGLVQPGRSLRLSCAASGFTFDDYAMHWVRQAPGKGLEWVSGISWNSGSIVYADSVKGRFTISRDNAKNSLYLQMNSLISEDTALYYCAKDESSSSGNWFDPWGQGTLVTVSS
VL: EVVMTQSPATLSVSPGERATLSCRASQSVSSNLAWYQQKPGQAPRLLIYGASTRATGIPARFSGSGSGTEFTLTISSLQSEDFAVYYCQEYNNWITFGQGTRLEIK

Molecular target: T1, amino acid residues 26-148 of human …
Assay: cell-based or functional assay

IC50 (nM) in the LPL inhibition assay, constant ANGPTL4 2 nM [nM]	Binder
1.69	B1
1.85	B2

molecular target: T2, full-length hANGPTL4 (amino acid …); assay: cell-based or functional assay

IC50 (nM) in the LPL inhibition assay, constant ANGPTL4 10 nM [nM]	Binder
1.19	B1
1.61	B2

Molecular target: T1, amino acid residues 26-148 of human …
Assay: SPR (Biacore T100), hANGPTL4-mFc captured by anti-mouse IgG, antibody injected, 25° C.
Protocol: (§1) Antigen-antibody binding and dissociation were monitored in real time at 25° C. and 37° C. Kinetic analysis was performed to calculate KD and half-life of antigen/antibody complex dissociation.

Kd [nM]	t1/2 [h]	Binder
0.136	1.87	B3
0.0876	5.05	B4
0.0925	2.6	B5
0.13	1.98	B6
0.111	2.4	B7
0.0307	14.6	B8
0.193	1.42	B9
0.201	1.52	B10
0.411	0.717	B11
1.19	0.117	B12

Molecular target: T1, amino acid residues 26-148 of human …
Assay: SPR (Biacore), pH 7.4, 25° C., protocol of Example 3
Protocol: as §1
Furthermore, a single amino acid substitution was introduced in the framework region 1 of H1H268P (SEQ ID NO:42) to form H4H268P2 (SEQ ID NO:487) in the IgG4 version.

Kd [nM]	t1/2 [h]	Binder
0.143	3.42	B1
0.146	3.25	B2

Molecular target: T1, amino acid residues 26-148 of human …
Assay: cell-based or functional assay
Remark: another data set of the same source

% Inhibition of hANGPTL4 Activity (LPL lipase test), hANGPTL4-mFc (2 nM) [%]	Binder
20	B3
28	B5
16	B10
55	B11
62	B12
13	B13

molecular target: T2, full-length hANGPTL4 (amino acid …); assay: cell-based or functional assay; remark: another data set of the same source

% Inhibition of hANGPTL4 Activity (LPL lipase test), hANGPTL4-His (10 nM) [%]	Binder
53	B3
47	B5
48	B11
48	B12
19	B13

Molecular target: T1, amino acid residues 26-148 of human …
Assay: SPR (Biacore T100), hANGPTL4-mFc captured by anti-mouse IgG, antibody injected, 37° C.
Protocol: as §1

Kd [nM]	t1/2 [h]	Binder
0.167	1.47	B3
0.178	2.03	B4
0.194	1.18	B5
1.36	0.2	B6
3	0.1	B7
2.62	0.167	B8
0.299	0.8	B9
0.238	1.05	B10
2.13	0.1	B11
3.71	0.05	B12
